In the supplement of paper PMC10724198:
± gives the standard deviation of the averaged measurements.

Legend:
[1] = system: Saccharomyces cerevisiae; test: protein stability index of tFT-peptide fusion (C-terminal peptide) (PSI (0-1 scale)); higher = more stable (slower turnover)
Description: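 MPS profiling in S. cerevisiae of the tFT-X12 degron library: putative degron peptides plus stable controls, 12 aa, fused to the C-terminus of a sfGFP-mCherry timer. Cells are FACS-sorted into 8 mCherry/sfGFP bins and deep-sequenced. PSI runs from 0 (unstable) to 1 (stable). Backgrounds are wild type, das1Δ and doa10Δ at 30 °C, and wild type, das1Δ, cdc34-1 and cdc53-1 at 37 °C; 2-3 technical replicates each.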

[2] = system: Saccharomyces cerevisiae; test: as above; details: genetic background: wild type; temperature: 30 C
[3] = genetic background: cdc34-1, temperature: 37 C
[4] = genetic background: cdc53-1, temperature: 37 C
[5] = genetic background: das1 deletion, temperature: 30 C
[6] = genetic background: das1 deletion, temperature: 37 C
[7] = genetic background: doa10 deletion, temperature: 30 C
[8] = genetic background: wild type, temperature: 30 C
[9] = genetic background: wild type, temperature: 37 C
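Further: PSI is a weighted mean of sequencing reads over stability bins, variants kept only with over 10 reads, mCherry proximal and sfGFP distal, peptide attached via GGGS linker.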

Row | Sequence | protein stability index [1, 3] | protein stability index [1, 4] | protein stability index [1, 5] | protein stability index [1, 6] | protein stability index [1, 7] | protein stability index [1, 8] | protein stability index [1, 9] | protein stability index [2]
1 | WALVLLVPVWFD | 0.442 ± 0.031 | 0.553 ± 0.06 | 0.383 ± 0.032 | 0.567 ± 0.011 | 0.396 ± 0.055 | 0.402 ± 0.014 | 0.533 ± 0.0073 | 0.471 ± 0.027
2 | LLWALGLVLVEG | 0.152 ± 0.033 | 0.193 ± 0.026 | 0.217 ± 0.022 | 0.2919 ± 0.0014 | 0.171 ± 0.0078 | 0.204 ± 0.029 | 0.281 ± 0.015 | 0.377 ± 0.029
3 | FHRSVVRLWLRN | 0.49 ± 0.06 | 0.619 ± 0.024 | 0.604 ± 0.02 | 0.679 ± 0.0092 | 0.114 ± 0.0044 | 0.104 ± 0.031 | 0.181 ± 0.066 | 0.301 ± 0.041
4 | SVLLVFRFFWEL | 0.417 ± 0.012 | 0.461 ± 0.018 | 0.397 ± 0.026 | 0.5056 ± 0.0022 | 0.295 ± 0.018 | 0.292 ± 0.029 | 0.445 ± 0.0082 | 0.405 ± 0.098
5 | PLVLPPINLFLV | 0.575 ± 0.071 | 0.729 ± 0.025 | 0.63 ± 0.017 | 0.7373 ± 0.0008 | 0.0842 ± 0.029 | 0.114 ± 0.019 | 0.136 ± 0.021 | 0.189 ± 0.0031
6 | SASPFYLPPPPV | 0.709 ± 0.024 | 0.7371 ± 0.0058 | 0.679 ± 0.043 | 0.735 ± 0.017 | 0.675 ± 0.018 | 0.671 ± 0.023 | 0.731 ± 0.012 | 0.735 ± 0.024
7 | VVWVYSMLFSIW | 0.19 ± 0.02 | 0.3594 ± 0.00053 | 0.231 ± 0.034 | 0.403 ± 0.015 | 0.202 ± 0.013 | 0.221 ± 0.021 | 0.415 ± 0.068 | 0.276 ± 0.0055
8 | FFALYGHILGLF | 0.702 ± 0.02 | 0.7821 ± 0.0041 | 0.611 ± 0.023 | 0.7525 ± 0.0025 | 0.472 ± 0.028 | 0.491 ± 0.016 | 0.685 ± 0.052 | 0.4957 ± 0.0022
9 | CLWLRCIVSILP | 0.121 ± 0.0082 | 0.248 ± 0.0081 | 0.184 ± 0.028 | 0.321 ± 0.01 | 0.16 ± 0.0074 | 0.168 ± 0.025 | 0.30428 ± 0.00014 | 0.239 ± 0.034
10 | PVWLSFHFFLCA | 0.426 ± 0.041 | 0.48 ± 0.011 | 0.369 ± 0.019 | 0.509 ± 0.013 | 0.321 ± 0.02 | 0.332 ± 0.017 | 0.469 ± 0.0063 | 0.44 ± 0.061
11 | GGMVRSCLWCFV | 0.675 ± 0.034 | 0.755 ± 0.014 | 0.6 ± 0.011 | 0.754 ± 0.029 | 0.322 ± 0.011 | 0.357 ± 0.018 | 0.585 ± 0.0078 | 0.432 ± 0.01
12 | NENQIKVIMLLV | 0.4964 ± 0.0021 | 0.572 ± 0.092 | 0.344 ± 0.052 | 0.555 ± 0.0077 | 0.153 ± 0.0095 | 0.196 ± 0.04 | 0.268 ± 0.011 | 0.266 ± 0.011
13 | VTGFGVAIVCVT | 0.263 ± 0.021 | 0.292 ± 0.0042 | 0.254 ± 0.044 | 0.3722 ± 0.0024 | 0.191 ± 0.0072 | 0.241 ± 0.033 | 0.364 ± 0.015 | 0.369 ± 0.084
14 | KCEKGLYCCIAF | 0.608 ± 0.055 | 0.68 ± 0.036 | 0.518 ± 0.031 | 0.664 ± 0.0099 | 0.516 ± 0.025 | 0.534 ± 0.027 | 0.626 ± 0.018 | 0.504 ± 0.073
15 | SSRPLSPQSLRL | 0.637 ± 0.2 | 0.709 ± 0.043 | 0.601 ± 0.051 | 0.71 ± 0.0077 | 0.60715 ± 0.00031 | 0.605 ± 0.067 | 0.658 ± 0.032 | 0.553 ± 0.17
16 | DCLSFVLFLFLC | 0.203 ± 0.038 | 0.259 ± 0.015 | 0.239 ± 0.025 | 0.39151 ± 0.00036 | 0.149 ± 0.007 | 0.134 ± 0.022 | 0.149 ± 0.0066 | 0.183 ± 0.017
17 | VFRLFFLLVWLV | 0.079 ± 0.016 | 0.0744 ± 0.019 | 0.184 ± 0.023 | 0.25 ± 0.0081 | 0.1663 ± 0.00045 | 0.112 ± 0.026 | 0.13 ± 0.021 | 0.123 ± 0.014
18 | KAEKNSKKTSTE | 0.685 ± 0.073 | 0.721 ± 0.013 | 0.658 ± 0.064 | 0.68229 ± 0.0003 | 0.633 ± 0.031 | 0.649 ± 0.033 | 0.702 ± 0.021 | 0.698 ± 0.044
19 | FLCLLASFVVCF | 0.3271 ± 0.00067 | 0.312 ± 0.008 | 0.281 ± 0.039 | 0.384 ± 0.029 | 0.249 ± 0.0083 | 0.285 ± 0.028 | 0.336 ± 0.015 | 0.363 ± 0.008
20 | APGGRGAAGPSC | 0.67 ± 0.06 | 0.7207 ± 0.0065 | 0.631 ± 0.036 | 0.751 ± 0.033 | 0.639 ± 0.021 | 0.655 ± 0.033 | 0.704 ± 0.018 | 0.69 ± 0.029
